Measured values as given in patent US10450368.

What was measured:
CH0505_CON D7gp120/293i = assay: ELISA
CH505.M10D8gp120 = assay: ELISA
CH505.M11D8gp120/293F = assay: ELISA
CH505.M19D8gp120 = assay: ELISA
CH505.M21D8gp120/293F = assay: ELISA
CH505.M5D8gp120293F = assay: ELISA
CH505.M7D8gp120/293F = assay: ELISA
CH505.M9D8gp120/293F = assay: ELISA
[1] = molecular target: CH505.TF mutant gp120 M20 (HIV-1); assay: ELISA
[2] = molecular target: CH505.TF mutant gp120 M6 (HIV-1); assay: ELISA
[3] = molecular target: CH505.TF mutant gp120 M8 (HIV-1); assay: ELISA
CH505.w30.12D8gp120 = assay: ELISA
CH505w020.14D8gp120 = assay: ELISA
CH505w030.20D8gp120/293F = assay: ELISA
CH505w136.B18D8gp120 = assay: ELISA
Centromere B [4] = molecular target: Centromere B (UniProt P07199); assay: AtheNA, Ab 25 ug/ml
Sequence of Centromere B (P07199 whole entry): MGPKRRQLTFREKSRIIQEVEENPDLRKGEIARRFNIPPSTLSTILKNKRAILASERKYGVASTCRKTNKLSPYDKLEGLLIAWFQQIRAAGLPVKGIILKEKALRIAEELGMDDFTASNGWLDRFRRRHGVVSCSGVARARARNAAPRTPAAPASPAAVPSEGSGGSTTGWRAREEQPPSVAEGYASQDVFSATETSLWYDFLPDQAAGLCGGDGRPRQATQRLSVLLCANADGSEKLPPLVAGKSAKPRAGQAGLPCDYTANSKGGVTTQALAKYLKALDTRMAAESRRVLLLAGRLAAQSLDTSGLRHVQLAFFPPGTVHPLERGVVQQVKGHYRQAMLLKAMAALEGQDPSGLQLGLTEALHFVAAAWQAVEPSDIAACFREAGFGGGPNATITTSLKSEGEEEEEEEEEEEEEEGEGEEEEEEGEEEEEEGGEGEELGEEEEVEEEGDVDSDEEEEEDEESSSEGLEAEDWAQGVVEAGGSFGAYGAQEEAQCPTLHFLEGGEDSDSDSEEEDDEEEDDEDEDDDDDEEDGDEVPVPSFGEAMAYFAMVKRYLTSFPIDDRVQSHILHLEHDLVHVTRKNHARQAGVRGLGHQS

Histones [5] = assay: AtheNA, Ab 25 ug/ml
Jo-1 [6] = molecular target: Jo-1 (UniProt P12081); assay: AtheNA, Ab 25 ug/ml
Sequence of Jo-1 (P12081 whole entry): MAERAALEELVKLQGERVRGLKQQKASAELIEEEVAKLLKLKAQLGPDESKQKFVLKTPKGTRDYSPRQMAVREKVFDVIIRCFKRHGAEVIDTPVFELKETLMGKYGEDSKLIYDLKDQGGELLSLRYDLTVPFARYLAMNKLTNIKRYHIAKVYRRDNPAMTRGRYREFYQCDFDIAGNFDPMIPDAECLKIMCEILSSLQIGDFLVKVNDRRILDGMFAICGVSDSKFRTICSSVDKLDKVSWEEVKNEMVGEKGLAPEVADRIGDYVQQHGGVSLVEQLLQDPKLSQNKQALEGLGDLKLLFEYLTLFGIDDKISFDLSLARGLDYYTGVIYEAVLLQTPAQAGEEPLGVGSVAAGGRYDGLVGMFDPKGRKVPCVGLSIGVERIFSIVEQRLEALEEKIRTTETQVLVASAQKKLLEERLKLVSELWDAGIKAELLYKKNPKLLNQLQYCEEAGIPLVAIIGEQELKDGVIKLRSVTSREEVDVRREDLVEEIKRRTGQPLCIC

RNP (ribonucleoprotein) [7] = assay: AtheNA, Ab 25 ug/ml
SSA [8] = assay: AtheNA, Ab 25 ug/ml
SSB [9] = molecular target: SSB (UniProt P05455); assay: AtheNA, Ab 25 ug/ml
Sequence of SSB (P05455 whole entry): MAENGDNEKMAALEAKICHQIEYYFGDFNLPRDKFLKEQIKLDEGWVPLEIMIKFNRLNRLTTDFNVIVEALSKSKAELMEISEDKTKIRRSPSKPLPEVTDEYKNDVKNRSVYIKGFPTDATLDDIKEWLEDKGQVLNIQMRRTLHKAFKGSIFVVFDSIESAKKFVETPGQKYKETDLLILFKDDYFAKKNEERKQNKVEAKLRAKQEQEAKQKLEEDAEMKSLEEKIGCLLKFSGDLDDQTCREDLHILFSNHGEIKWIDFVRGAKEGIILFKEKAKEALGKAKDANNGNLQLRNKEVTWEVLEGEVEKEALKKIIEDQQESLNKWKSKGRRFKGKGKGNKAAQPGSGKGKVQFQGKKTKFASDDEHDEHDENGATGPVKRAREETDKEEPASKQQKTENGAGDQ

Scl-70 [10] = molecular target: Scl-70 (UniProt P11387); assay: AtheNA, Ab 25 ug/ml
Sequence of Scl-70 (P11387 whole entry): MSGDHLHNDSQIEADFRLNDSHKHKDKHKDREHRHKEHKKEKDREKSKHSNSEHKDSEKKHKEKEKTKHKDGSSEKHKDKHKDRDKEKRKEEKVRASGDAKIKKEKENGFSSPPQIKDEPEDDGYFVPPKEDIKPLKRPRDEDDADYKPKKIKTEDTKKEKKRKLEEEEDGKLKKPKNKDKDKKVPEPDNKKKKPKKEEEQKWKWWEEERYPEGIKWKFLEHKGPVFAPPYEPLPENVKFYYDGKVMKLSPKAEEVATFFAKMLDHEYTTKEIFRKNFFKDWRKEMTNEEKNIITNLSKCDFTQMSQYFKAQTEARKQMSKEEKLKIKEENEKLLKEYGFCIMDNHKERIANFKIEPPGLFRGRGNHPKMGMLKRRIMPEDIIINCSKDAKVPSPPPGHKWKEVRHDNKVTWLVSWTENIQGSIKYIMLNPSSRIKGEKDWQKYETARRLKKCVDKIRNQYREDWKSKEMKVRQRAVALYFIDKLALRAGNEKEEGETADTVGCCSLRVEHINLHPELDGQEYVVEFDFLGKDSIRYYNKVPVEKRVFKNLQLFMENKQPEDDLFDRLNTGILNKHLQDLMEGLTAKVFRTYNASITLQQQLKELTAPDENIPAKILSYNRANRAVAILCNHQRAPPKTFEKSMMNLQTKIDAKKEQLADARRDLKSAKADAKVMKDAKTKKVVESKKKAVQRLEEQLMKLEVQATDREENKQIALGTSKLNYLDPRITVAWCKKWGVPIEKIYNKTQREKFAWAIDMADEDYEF

Sm (Smith antigen) [11] = assay: AtheNA, Ab 25 ug/ml
Histones [12] = assay: AtheNA, Ab 50 ug/ml
Jo-1 [13] = molecular target: Jo-1 (UniProt P12081); assay: AtheNA, Ab 50 ug/ml
SSA [14] = assay: AtheNA, Ab 50 ug/ml
SSB [15] = molecular target: SSB (UniProt P05455); assay: AtheNA, Ab 50 ug/ml
Sm (Smith antigen) [16] = assay: AtheNA, Ab 50 ug/ml
Centromere B [17] = molecular target: Centromere B (UniProt P07199); assay: AtheNA, Ab 12.5 ug/ml
Histones [18] = assay: AtheNA, Ab 12.5 ug/ml
Jo-1 [19] = molecular target: Jo-1 (UniProt P12081); assay: AtheNA, Ab 12.5 ug/ml
RNP (ribonucleoprotein) [20] = assay: AtheNA, Ab 12.5 ug/ml
SSA [21] = assay: AtheNA, Ab 12.5 ug/ml
SSB [22] = molecular target: SSB (UniProt P05455); assay: AtheNA, Ab 12.5 ug/ml
Scl-70 [23] = molecular target: Scl-70 (UniProt P11387); assay: AtheNA, Ab 12.5 ug/ml
Sm (Smith antigen) [24] = assay: AtheNA, Ab 12.5 ug/ml
Centromere B [25] = molecular target: Centromere B (UniProt P07199); assay: AtheNA, Ab 6.25 ug/ml
Histones [26] = assay: AtheNA, Ab 6.25 ug/ml
Jo-1 [27] = molecular target: Jo-1 (UniProt P12081); assay: AtheNA, Ab 6.25 ug/ml
RNP (ribonucleoprotein) [28] = assay: AtheNA, Ab 6.25 ug/ml
SSA [29] = assay: AtheNA, Ab 6.25 ug/ml
SSB [30] = molecular target: SSB (UniProt P05455); assay: AtheNA, Ab 6.25 ug/ml
Scl-70 [31] = molecular target: Scl-70 (UniProt P11387); assay: AtheNA, Ab 6.25 ug/ml
Sm (Smith antigen) [32] = assay: AtheNA, Ab 6.25 ug/ml
[33] = molecular target: HIV-1 CH505 transmitted/founder gp120 Env (HIV-1); assay: competition ELISA, blocking of sCD4 binding to gp120
[34] = molecular target: HIV-1 CH505 transmitted/founder gp120 Env (HIV-1); assay: competition ELISA, blocking of CH106 binding to gp120
Centromere B [35] = molecular target: Centromere B (UniProt P07199); assay: AtheNA, Ab 50 ug/ml
RNP (ribonucleoprotein) [36] = assay: AtheNA, Ab 50 ug/ml
Centromere B [37] = molecular target: Centromere B (UniProt P07199); assay: AtheNA, Ab 25 ug/ml; remark: listed apart in the source
Histones [38] = assay: AtheNA, Ab 25 ug/ml; remark: listed apart in the source
Jo-1 [39] = molecular target: Jo-1 (UniProt P12081); assay: AtheNA, Ab 25 ug/ml; remark: listed apart in the source
RNP (ribonucleoprotein) [40] = assay: AtheNA, Ab 25 ug/ml; remark: listed apart in the source
SSA [41] = assay: AtheNA, Ab 25 ug/ml; remark: listed apart in the source
SSB [42] = molecular target: SSB (UniProt P05455); assay: AtheNA, Ab 25 ug/ml; remark: listed apart in the source
Scl-70 [43] = molecular target: Scl-70 (UniProt P11387); assay: AtheNA, Ab 25 ug/ml; remark: listed apart in the source
Sm (Smith antigen) [44] = assay: AtheNA, Ab 25 ug/ml; remark: listed apart in the source
Centromere B [45] = molecular target: Centromere B (UniProt P07199); assay: AtheNA, Ab 50 ug/ml; remark: listed apart in the source
Histones [46] = assay: AtheNA, Ab 50 ug/ml; remark: listed apart in the source
Jo-1 [47] = molecular target: Jo-1 (UniProt P12081); assay: AtheNA, Ab 50 ug/ml; remark: listed apart in the source
RNP (ribonucleoprotein) [48] = assay: AtheNA, Ab 50 ug/ml; remark: listed apart in the source
SSA [49] = assay: AtheNA, Ab 50 ug/ml; remark: listed apart in the source
SSB [50] = molecular target: SSB (UniProt P05455); assay: AtheNA, Ab 50 ug/ml; remark: listed apart in the source
Scl-70 [51] = molecular target: Scl-70 (UniProt P11387); assay: AtheNA, Ab 50 ug/ml
Sm (Smith antigen) [52] = assay: AtheNA, Ab 50 ug/ml; remark: listed apart in the source

## CH235 IA1 (antibody)
CH0505_CON D7gp120/293i
  LogAUC: 6.89
CH505.M10D8gp120
  LogAUC: 7.08
CH505.M11D8gp120/293F
  LogAUC: 2.85
CH505.M19D8gp120
  LogAUC: 2.78
CH505.M21D8gp120/293F
  LogAUC: 0
CH505.M5D8gp120293F
  LogAUC: 9.18
CH505.M7D8gp120/293F
  LogAUC: 0
CH505.M9D8gp120/293F
  LogAUC: 0
[1]
  LogAUC: 0
[2]
  LogAUC: 6.1
[3]
  LogAUC: 0
CH505.w30.12D8gp120
  LogAUC: 2.4
CH505w020.14D8gp120
  LogAUC: 6.52
CH505w030.20D8gp120/293F
  LogAUC: 4.82
CH505w136.B18D8gp120
  LogAUC: 2.36
Centromere B [4]
  AtheNA signal (relative luminescence units): 80
Histones [5]
  AtheNA signal (relative luminescence units): 99
Jo-1 [6]
  AtheNA signal (relative luminescence units): 171
RNP (ribonucleoprotein) [7]
  AtheNA signal (relative luminescence units): 67
SSA [8]
  AtheNA signal (relative luminescence units): 150
SSB [9]
  AtheNA signal (relative luminescence units): 197
Scl-70 [10]
  AtheNA signal (relative luminescence units): 52
Sm (Smith antigen) [11]
  AtheNA signal (relative luminescence units): 110
Histones [12]
  AtheNA signal (relative luminescence units): 100
Jo-1 [13]
  AtheNA signal (relative luminescence units): 176
SSA [14]
  AtheNA signal (relative luminescence units): 149
SSB [15]
  AtheNA signal (relative luminescence units): 217
Sm (Smith antigen) [16]
  AtheNA signal (relative luminescence units): 104
Centromere B [17]
  AtheNA signal (relative luminescence units): 81
Histones [18]
  AtheNA signal (relative luminescence units): 100
Jo-1 [19]
  AtheNA signal (relative luminescence units): 152
RNP (ribonucleoprotein) [20]
  AtheNA signal (relative luminescence units): 56
SSA [21]
  AtheNA signal (relative luminescence units): 151
SSB [22]
  AtheNA signal (relative luminescence units): 167
Scl-70 [23]
  AtheNA signal (relative luminescence units): 40
Sm (Smith antigen) [24]
  AtheNA signal (relative luminescence units): 77
Centromere B [25]
  AtheNA signal (relative luminescence units): 87
Histones [26]
  AtheNA signal (relative luminescence units): 118
Jo-1 [27]
  AtheNA signal (relative luminescence units): 129
RNP (ribonucleoprotein) [28]
  AtheNA signal (relative luminescence units): 46
SSA [29]
  AtheNA signal (relative luminescence units): 175
SSB [30]
  AtheNA signal (relative luminescence units): 117
Scl-70 [31]
  AtheNA signal (relative luminescence units): 31
Sm (Smith antigen) [32]
  AtheNA signal (relative luminescence units): 77
[33]
  IC50: > 100 µg/mL
[34]
  IC50: 82.4 µg/mL

## CH235 IA2 (antibody)
CH0505_CON D7gp120/293i
  LogAUC: 4.77
CH505.M10D8gp120
  LogAUC: 0.43
CH505.M11D8gp120/293F
  LogAUC: 0
CH505.M19D8gp120
  LogAUC: 0
CH505.M21D8gp120/293F
  LogAUC: 0
CH505.M5D8gp120293F
  LogAUC: 6.95
CH505.M7D8gp120/293F
  LogAUC: 0
CH505.M9D8gp120/293F
  LogAUC: 0
[1]
  LogAUC: 0
[2]
  LogAUC: 1.22
[3]
  LogAUC: 0
CH505.w30.12D8gp120
  LogAUC: 0
CH505w020.14D8gp120
  LogAUC: 1.22
CH505w030.20D8gp120/293F
  LogAUC: 0.53
CH505w136.B18D8gp120
  LogAUC: 0
Centromere B [4]
  AtheNA signal (relative luminescence units): 228
Histones [5]
  AtheNA signal (relative luminescence units): 302
Jo-1 [6]
  AtheNA signal (relative luminescence units): 26
RNP (ribonucleoprotein) [7]
  AtheNA signal (relative luminescence units): 93
SSA [8]
  AtheNA signal (relative luminescence units): 43
SSB [9]
  AtheNA signal (relative luminescence units): 36
Scl-70 [10]
  AtheNA signal (relative luminescence units): 49
Sm (Smith antigen) [11]
  AtheNA signal (relative luminescence units): 256
Centromere B [35]
  AtheNA signal (relative luminescence units): 256
Histones [12]
  AtheNA signal (relative luminescence units): 371
RNP (ribonucleoprotein) [36]
  AtheNA signal (relative luminescence units): 101
Sm (Smith antigen) [16]
  AtheNA signal (relative luminescence units): 259
Centromere B [17]
  AtheNA signal (relative luminescence units): 225
Histones [18]
  AtheNA signal (relative luminescence units): 287
Jo-1 [19]
  AtheNA signal (relative luminescence units): 20
RNP (ribonucleoprotein) [20]
  AtheNA signal (relative luminescence units): 85
SSA [21]
  AtheNA signal (relative luminescence units): 34
SSB [22]
  AtheNA signal (relative luminescence units): 31
Scl-70 [23]
  AtheNA signal (relative luminescence units): 44
Sm (Smith antigen) [24]
  AtheNA signal (relative luminescence units): 279
Centromere B [25]
  AtheNA signal (relative luminescence units): 183
Histones [26]
  AtheNA signal (relative luminescence units): 207
Jo-1 [27]
  AtheNA signal (relative luminescence units): 12
RNP (ribonucleoprotein) [28]
  AtheNA signal (relative luminescence units): 66
SSA [29]
  AtheNA signal (relative luminescence units): 18
SSB [30]
  AtheNA signal (relative luminescence units): 15
Scl-70 [31]
  AtheNA signal (relative luminescence units): 28
Sm (Smith antigen) [32]
  AtheNA signal (relative luminescence units): 204

## DH270IA1 (antibody)
Centromere B [37]
  AtheNA signal: 5
Histones [38]
  AtheNA signal: 4
Jo-1 [39]
  AtheNA signal: 3
RNP (ribonucleoprotein) [40]
  AtheNA signal: 2
SSA [41]
  AtheNA signal: 3
SSB [42]
  AtheNA signal: 6
Scl-70 [43]
  AtheNA signal: 1
Sm (Smith antigen) [44]
  AtheNA signal: 5
Centromere B [45]
  AtheNA signal: 10
Histones [46]
  AtheNA signal: 9
Jo-1 [47]
  AtheNA signal: 5
RNP (ribonucleoprotein) [48]
  AtheNA signal: 2
SSA [49]
  AtheNA signal: 5
SSB [50]
  AtheNA signal: 6
Scl-70 [51]
  AtheNA signal: 4
Sm (Smith antigen) [52]
  AtheNA signal: 5
Centromere B [17]
  AtheNA signal: 3
Histones [18]
  AtheNA signal: 4
Jo-1 [19]
  AtheNA signal: 6
RNP (ribonucleoprotein) [20]
  AtheNA signal: 3
SSA [21]
  AtheNA signal: 3
SSB [22]
  AtheNA signal: 6
Scl-70 [23]
  AtheNA signal: 2
Sm (Smith antigen) [24]
  AtheNA signal: 5
Centromere B [25]
  AtheNA signal: 2
Histones [26]
  AtheNA signal: 2
Jo-1 [27]
  AtheNA signal: 5
RNP (ribonucleoprotein) [28]
  AtheNA signal: 2
SSA [29]
  AtheNA signal: 5
SSB [30]
  AtheNA signal: 1
Scl-70 [31]
  AtheNA signal: 2
Sm (Smith antigen) [32]
  AtheNA signal: 3
